Test results: article PMC12210968

Molecular target: Human plasminogen (PLG) protein (human) (UniProt P00747)
Assay: SPR; BIAcore system; PLG and EV-A71 6356 viral particles; the methods tell one set-up (PLG coated, virus diluted) for EnSpire or BIAcore

## Enterovirus A71 (EV-A71) viral particles, strain 6356 (human strain, C2 genotype) (complex)
  Kd: 1.96 nM
  koff: 5.63e-05 s⁻¹
  kon: 28800 M⁻¹ s⁻¹
